US20030050242A1, “Protein polymerization inhibitors and methods of use” (priority 1999, published 2003)
Ends that are not written are not given here. Peptide text beside a SMILES is read from it.

How the values were obtained:
HIV-1 [1] = details: summary of Experiments 1-6
Method: Next, the ability of peptide agents to inhibit viral infection was evaluated. Accordingly, the peptide agents listed in Table 1 were used in several viral (e.g., HIV-1, HIV-2, and SIV) infection assays. […] Once inhibitory tripeptides were identified, more specific assays were conducted to determine the effect of varying concentrations of the selected tripeptides and combination treatments (e.g., the use of more than one modified tripeptide in combination).

HIV-1 [2] = details: 100 μM; Experiment 6
Method: The HUT cells were resuspended in 1 ml of RPMI 1640 medium supplemented with 10% (v/v) heat-inactivated fetal bovine serum (FBS, GIBCO), penicillin (100 u/ml), streptomycin (100 u/ml) and Polybrene (Sigma, 2 μg/ml) with or without the presence of the different small peptides (100 μM) mentioned above. Thereafter, the HIV-1 virus was added at 25 TCID50 in a volume of 20 μl. Cells were incubated with the virus at 37° C. for one hour and, subsequently, the cells were pelleted at 170× g for seven minutes. The cells were then washed three times in RPMI medium without peptides at room temperature by cell sedimentation at 170× g for seven minutes, as above. After the final wash, the cells were resuspended in RPMI culture medium in 24-well plate (Costar corporation) and were kept at 37° C. in 5% CO2 with humidity. Culture supernatants were collected when medium was changed at day 4, 7, and 11 post infection and viral p24 production was monitored by using an HIV-1 p24 ELISA kit (Abbott Laboratories, North Chicago, USA).

[3] = molecular target: major capsid protein (p24) of HIV-1 (HIV-1) (UniProt P04591)
[4] = molecular target: viral capsid protein (p24) of HIV-2 (HIV-2)
[5] = molecular target: viral capsid protein (p24) of SIV (SIV)
HIV-1 SF-2 virus = test: electron microscopy of HIV-1 particles from infected HUT78 cells; assay type: cell-based; details: 0.5 μM control sample; cells fixed day 14
Method: Evidence that peptide agents inhibit or prevent viral capsid protein polymerization and, thus, proper nucleocapsid assembly was obtained by performing electron microscopy on HIV-1 particles that were contacted with a modified small peptide. In this set of experiments, HUT78 cells were infected with HIV-1 SF-2 virus at 300TCID50 for 1 hr at 37° C. Subsequently, the infected cells were washed and pelleted 3 times. […] GPG-NH2 was then added into the cell cultures 3, 5 or 7 days post infection at concentration of 1 μm or 10 μM. A control sample was administered 0.5 μM Ritonavir (a protease inhibitor). The cells were cultured until day 14, at which point, the cells were fixed in 2.5% glutaraldehyde by conventional means. The fixed cells were then post-fixed in 1% OSO4 and were dehydrated, embedded with epoxy resins, and the blocks were allowed to polymerize. Epon sections of virus infected cells were made approximately 60-80 nm thin in order to accommodate the width of the nucleocapsid. The sections were mounted to grids stained with 1.0% uranyl acetate and were analyzed in a Zeiss CEM 902 microscope at an accelerating voltage of 80 kV. The microscope was equipped with a spectrometer to improve image quality and a liquid nitrogen cooling trap was used to reduce beam damage. The grids having sections of control and GPG-NH2 incubated cells were examined in several blind studies.
(See FIG. 1). […]

[6] = molecular target: T1, major capsid protein (p24) of HIV-1 (HIV-1, UniProt P04591); test: cell-based or functional assay
[7] = molecular target: T1, major capsid protein (p24) of HIV-1; test: cell-based or functional assay; remark: listed apart in the source

C[C@@H](O)[C@H](NC(=O)[C@@H]1CCCN1C(=O)[C@@H](N)CO)C(N)=O [SPT-NH2, seryl-prolyl-threonine amide] (H-Ser-Pro-Thr-NH2)
effect on HIV-1 infection, in words (HIV-1 [1]): inhibited and/or prevented HIV-1 infection
inhibiting or preventing HIV-1 infection, in words (HIV-1 [2]): less effective

GKG-NH2 + CQG-NH2 (pool or library)
reverse transcriptase (RT) activity in the supernatants, Day 10 RT (OD) [3]: 1.89 OD
reverse transcriptase (RT) activity in the supernatants, Day 10 RT (OD) [4]: 2.8 OD
reverse transcriptase (RT) activity in the supernatants, Day 10 RT (OD) [5]: 2.89 OD

NCCCC[C@H](N)C(=O)N[C@@H](CCC(N)=O)C(=O)NCC(N)=O [KQG-NH2, lysyl-glutaminyl-glycine amide] (H-Lys-Gln-Gly-NH2)
effect on HIV-1 infection, in words (HIV-1 [1]): inhibited and/or prevented HIV-1 infection
reduction of virus, capsid protein p24 in the supernatant (HIV-1 [2]): ~100%

CC(C)C[C@H](NC(=O)[C@H](C)N)C(=O)NCC(N)=O [ALG-NH2, alanyl-leucyl-glycine amide] (H-Ala-Leu-Gly-NH2)
effect on HIV-1 infection, in words (HIV-1 [1]): inhibited and/or prevented HIV-1 infection
reduction of virus, capsid protein p24 in the supernatant (HIV-1 [2]): ~100%

CC(C)C[C@H](NC(=O)[C@@H](N)CO)C(=O)NCC(N)=O [SLG-NH2, seryl-leucyl-glycine amide] (H-Ser-Leu-Gly-NH2)
effect on HIV-1 infection, in words (HIV-1 [1]): inhibited and/or prevented HIV-1 infection
reduction of virus, capsid protein p24 in the supernatant (HIV-1 [2]): ~100%

C[C@H](N)C(=O)N[C@@H](CO)C(=O)NCC(N)=O [ASG-NH2, alanyl-seryl-glycine amide] (H-Ala-Ser-Gly-NH2)
effect on HIV-1 infection, in words (HIV-1 [1]): inhibited and/or prevented HIV-1 infection
inhibiting or preventing HIV-1 infection, in words (HIV-1 [2]): less effective

N=C(N)NCCC[C@H](N)C(=O)N[C@@H](CCC(N)=O)C(=O)NCC(N)=O [RQG-NH2, arginyl-glutaminyl-glycine amide] (H-Arg-Gln-Gly-NH2)
effect on HIV-1 infection, in words (HIV-1 [1]): inhibited and/or prevented HIV-1 infection
reduction of virus, capsid protein p24 in the supernatant (HIV-1 [2]): ~100%

GPG-NH2 + GKG-NH2 (pool or library)
reverse transcriptase (RT) activity in the supernatants, Day 10 RT (OD) [3]: 0.164 OD
reverse transcriptase (RT) activity in the supernatants, Day 10 RT (OD) [4]: 1.11 OD
reverse transcriptase (RT) activity in the supernatants, Day 10 RT (OD) [5]: 0.309 OD

CC(C)c1nc(CN(C)C(=O)N[C@H](C(=O)N[C@@H](Cc2ccccc2)C[C@H](O)[C@H](Cc2ccccc2)NC(=O)OCc2cncs2)C(C)C)cs1 [Ritonavir, reference compound]
capsid/nucleocapsid morphology of HIV-1 particles (HIV-1 SF-2 virus): malformed structures that did not have a discernable nucleocapsid

CC(C)[C@H](NC(=O)CN)C(=O)NCC(N)=O [GVG-NH2, glycyl-valyl-glycine amide] (H-Gly-Val-Gly-NH2)
effect on HIV-1 infection, in words (HIV-1 [1]): inhibited and/or prevented HIV-1 infection
inhibiting or preventing HIV-1 infection, in words (HIV-1 [2]): less effective

GPG-NH2 + CQG-NH2 (pool or library)
reverse transcriptase (RT) activity in the supernatants, Day 10 RT (OD) [3]: 0.397 OD
reverse transcriptase (RT) activity in the supernatants, Day 10 RT (OD) [4]: 1.17 OD
reverse transcriptase (RT) activity in the supernatants, Day 10 RT (OD) [5]: 0.91 OD

CC(C)[C@H](N)C(=O)NCC(=O)NCC(N)=O [VGG-NH2, valyl-glycyl-glycine amide] (H-Val-Gly-Gly-NH2)
effect on HIV-1 infection, in words (HIV-1 [1]): inhibited and/or prevented HIV-1 infection
inhibiting or preventing HIV-1 infection, in words (HIV-1 [2]): less effective

B1: ACQ-NH2 (peptide)
peptide: Ala-Cys-Gln-NH2
reverse transcriptase (RT) activity in the supernatants, Day 10 RT (OD) [6]: 0.904 OD

B2: Cys-Gln-Gly-NH2 (peptide)
peptide: Cys-Gln-Gly-NH2
reverse transcriptase (RT) activity in the supernatants, Day 10 RT (OD) [6]: 0.108 OD

B3: ARV-NH2 (peptide)
peptide: Ala-Arg-Val-NH2
reverse transcriptase (RT) activity in the supernatants, Day 10 RT (OD) [6]: 1.53 OD

B4: KAR-NH2 (peptide)
peptide: Lys-Ala-Arg-NH2
reverse transcriptase (RT) activity in the supernatants, Day 10 RT (OD) [6]: 2.78 OD

B5: HKA-NH2 (peptide)
peptide: His-Lys-Ala-NH2
reverse transcriptase (RT) activity in the supernatants, Day 10 RT (OD) [6]: 2.55 OD

B6: GAT-NH2 (peptide)
peptide: Gly-Ala-Thr-NH2
reverse transcriptase (RT) activity in the supernatants, Day 10 RT (OD) [6]: 1.56 OD

B7: KAL-NH2 (peptide)
peptide: Lys-Ala-Leu-NH2
reverse transcriptase (RT) activity in the supernatants, Day 10 RT (OD) [6]: 2 OD

B8: Arg-Gln-Gly-NH2 (peptide)
peptide: Arg-Gln-Gly-NH2
p24 production of infected HUT78 cells (HIV-1 p24 ELISA), Day 7 HIV-1, reduction (%), peptide at 100 µM [7]: 99%

B9: Lys-Gln-Gly-NH2 (peptide)
peptide: Lys-Gln-Gly-NH2
p24 production of infected HUT78 cells (HIV-1 p24 ELISA), Day 7 HIV-1, reduction (%), peptide at 100 µM [7]: 99%

B10: Ala-Leu-Gly-NH2 (peptide)
peptide: Ala-Leu-Gly-NH2
p24 production of infected HUT78 cells (HIV-1 p24 ELISA), Day 7 HIV-1, reduction (%), peptide at 100 µM [7]: 100%

B11: Gly-Val-Gly-NH2 (peptide)
peptide: Gly-Val-Gly-NH2
p24 production of infected HUT78 cells (HIV-1 p24 ELISA), Day 7 HIV-1, reduction (%), peptide at 100 µM [7]: 25%

B12: Val-Gly-Gly-NH2 (peptide)
peptide: Val-Gly-Gly-NH2
p24 production of infected HUT78 cells (HIV-1 p24 ELISA), Day 7 HIV-1, reduction (%), peptide at 100 µM [7]: 50%

B13: Ala-Ser-Gly-NH2 (peptide)
peptide: Ala-Ser-Gly-NH2
p24 production of infected HUT78 cells (HIV-1 p24 ELISA), Day 7 HIV-1, reduction (%), peptide at 100 µM [7]: 25%

B14: Ser-Leu-Gly-NH2 (peptide)
peptide: Ser-Leu-Gly-NH2
p24 production of infected HUT78 cells (HIV-1 p24 ELISA), Day 7 HIV-1, reduction (%), peptide at 100 µM [7]: 99%

B15: Ser-Pro-Thr-NH2 (peptide)
peptide: Ser-Pro-Thr-NH2
p24 production of infected HUT78 cells (HIV-1 p24 ELISA), Day 7 HIV-1, reduction (%), peptide at 100 µM [7]: 25%
